The source of these data is the nanobody polyreactivity screen of Harvey et al. (2022).

The data set in a line: yeast display, Sf9 membrane polyspecificity reagent, FACS + sequencing; frameworks hold sequencing errors. The method in brief:
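Using colony PCR, genes from sorted yeast display clones were amplified, then sequenced on MiSeq at 2 × 250 and filtered by CDR length. The clones had been stained with 10% biotinylated, detergent-solubilized Sf9 membrane reagent for 1 hour at 4 °C and sorted by FACS into low and high (top ~1%) gates on anti-HA and streptavidin fluorescence. Polyreactivity labels come from the gate of origin.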
Turning to “QVQLVESGGGLVQAGGSLRLSCAASGSISRVYAMGWYRAAPGKERELVASISRSGGSTYYADSVKGRFTISRDNAKNTVYLQRNSLKPEDTAVYYCAKASKGQYRFDYWGQGTQVTVSS”, the “polyreactivity (PSR sort gate)” value was “low polyreactivity”. For “QVQLVESGRGLVQAGGSLRLSCAACGSIFVYNDRGCYRQAPGKERELVAAISASGGRTYSADSVKGRFTISRDNAKNTVYLQMNSLKPEDTAVYYCAKDWLWGPEYDYWGQGTQVTVSS” the value was “low polyreactivity”; for “QVQLVESGGGLVQAGGSLRLSCAASGSTFPSYVMGWYRQAPGKEREMVAAISSSGGRTYYADSVKGRFTISRDNAKNTVYLQMNSLKPEDTAVYYCAAKRGPLVNDHQFWGQGTQVTVSS”, “high polyreactivity”; for “QVQLVESGGGLVQAGGSLRLSCAASGRTFLRYTMGWYRQAPGKERELVASITRGGSTYYADSVKGRFTISRDNAKNTVYLQMNSLKPEDTAVYYCAVDVYGSHYYTGSLGKPDGYWGQGTQVTVSS”, “high polyreactivity”.

Turning to “QVQLVESGGGLVQAGGSLRLSCAASGFTFNWNTMGWYRQAPGKERELVAAISSGGITYYADSVKGRFTISRDNAKNTVYLQMNSLKPEDTAVYYCNVRPFRPHNRYGYWGQFTQVTVSS”, the “polyreactivity (PSR sort gate)” value is reported as “high polyreactivity”. For “QVQRVESGGGLVQAGGSLRLSCAASGFIFTSNARGWYRPAPGKERELVAASTKSGGSTYYADSVKGRFTISRDNAKNTVYLQMNSLKPEDTAVYYCAAYPTSRYKYEYWGQGTQVTVSS” the value was “high polyreactivity”; for “QVQLVESGGGLVQAGGSLRLSCAASGITFLKNAMGWYRQAPGKERELVAAISSSGGSTYYADSVKGRFTISRDNAKNTVYLQMNSLKPEDTAVYYCAAYPTSTVVDDFDYWGQGTQVTVSS”, “high polyreactivity”. In the case of “QVQLVESGGGLVQAGGSLRLSCAASGFIFSSYAMGWYRQAPGKERELVASIRRRGGSTYYADSVKGRFTISRDNAKNTVYLQMNSLKPEDTAVYYCAASRVSYGTRFDYWGQGTQVTVSS”, the “polyreactivity (PSR sort gate)” value is given as “high polyreactivity”. For “QVQLVESGGGLVQAGGSLRLSCAASGITFGGYALGWYRQAPGKEREFVAGISSSGRSTYYADSVKGRFTISRDNAKNTVYLQMYSLKPEDTAVYYCAVYRVRKVYVLRGPFYYWGQGTQVTVSS” the value was “high polyreactivity”; for “QVQLVESGGGLVQAGGSLRLSCAASGRIFSVYTMGWYRQAPGKERELVAAISSGASTNYADSVKGRFTISRDNAKNTVYLQMNSLKPEDTAVYYCAKVLTNFNLYYYWGQGTQVTVSS”, “low polyreactivity”; for “QVQLVESGGGLVQAGGSLRLSCAASGRTFSPYAMAWYRQAPGKEREFVAAIRVRGGSTYYADSVKGRFTISRDNAKNTVYLQMNSLKPEDTAVYYCNAQYLVYNGYPYLYDYWGQGTQVTVSS”, “high polyreactivity”. Then “QVQLVESGGGLVQAGGSLRLTCAASGRTFAINVMGWYIQAPGKERELVASIRGRGGRTNYADSVKGRFTISRDNAKNTVYLQMNRLKPEDTAVYYCAASQWWRYDYWGQGTQVTVSS”, with “high polyreactivity”; and “QVQLVESGGGLVQAGGSLRLSCAASGRTFAYNTMGWYRQAPGKERELVAAITSGGSTYYADSVKGRFTISRDNAKNTVYLQINSLKPEDTAVYYCSAVDYWDYFYWRDDYWGQGTQVTVSS”, with “low polyreactivity”. Then “QVQLEDSGGGLLQAGGSLRLSCAASGRILYLYTMGWYRQAPGKERELVAAISRGGSTYYADSVKGRFTISRDNAKNTVYLQMNSLNPEDTAVYYCSADARGYQFNYWGQGTQVTVSS”, with “high polyreactivity”; and “QVQLVESGGGLVQAGGSLRLSCAASGRTFVQYVMGWYRQAPGKERELVARISSGGSTFYADSVKGRFTISRDNAKNTVYLQMNSLKPEDTAVYYCAAQWTRYRRRPMDYWGQGTQVTVSS”, with “high polyreactivity”; and “QFQLVESGGGLVQAGGSLRLSCAASGSTFTNYAMGWYRQAPGKEREFVAAITFRGGRTYYADSVKGRFTISRHNAKNTVYLQLNSLKPEDTAVYYCNKRTSPKRFDYWGQGTQVTVSS”, with “high polyreactivity”.

Turning to “QVQLVESGGGLVQAGGSLRLSCAASGFIFFVNAMGWYRQAPGKEREFVATITGSGGSKYYADSVKGRFTISRDIAKNTVYLQMISLKPEDTAVYYCNAETYIVLRGKFPVEYDYWGQGTQVTVSS”, the “polyreactivity (PSR sort gate)” value is “low polyreactivity”.

Regarding “QVQLVESGGGLVQAGGSLRLSCAASGSTFASYAMGSYRQATGKETELVASITRRGGSTDYADSVKGRFTISRDNAKTTVYLQMNSLKPEDTSVYYAVETAWSYNSNYWFDYWGQGTQVTVSS”, the “polyreactivity (PSR sort gate)” value is recorded as “high polyreactivity”. Take “QVQLVESGGGLVQAGGSLRLSCAASGRIFWSNAMGWYRQAPGKERELVATISSGGRTYYADSVKGRFTISRDNAKNTVYLQMNSLKPEDTAVYYCAAVTFWFWPGMDYWGQGTQVTVSS”: the “polyreactivity (PSR sort gate)” value is listed as “low polyreactivity”.

Take “QVQLVESGGGLVQAGGSLRLSCAASGYTFPRYAMGWYRQAPGKERELVAAITWSGGSTYYADSVKGRFTISRDNAKNTVYLQMNSLKPEDTAVYYCNTDRYHRVDFDYWGQGTQVTVSS”: the “polyreactivity (PSR sort gate)” value is listed as “high polyreactivity”. As to “QVQLVESGGGLVQAGGSLRLSCAASGSILGTNAMGWYRQAPGKESELVAAINYSGGNTYYADSVKGRFTISRDNAKNTVYLQMNSLKPEDTAVYYCAAVNGWRRVKRFDYWGQGTQVTVSS”, the “polyreactivity (PSR sort gate)” value was “high polyreactivity”.

For “QVQLVESGGGLVQAGGSLRLSCASSGRIFSFYAMGWYRQAPGKERELVAAISWNSGRTYYADSVKGRFTISRDNAKNTVYLQMNSLKPEDTAVYYCAAPFSAYYGDDYWGQGTQVTVSS”, the “polyreactivity (PSR sort gate)” value is given as “low polyreactivity”. As for “QVQLVESGGGLVQAGGSLRLSCAASGSIFNYYTMGWYRQAPGKERELVAAISYRGGRTYYADSVKGRFTISRDNAKNTVYLQMNSLKPEDTAVYYCNAVTRIYEVDYWGQGTQVTVSS”, the “polyreactivity (PSR sort gate)” value was “high polyreactivity”. Then “QVQLVESGGGLVQAGGSLRLSCAASGSIFIAYTMGWYRQAPGKERELVAAISQSGGGTHYADSVKGRFTISRDNAKNTVYLQMNSLKPEDTAVYYCAADRPATSDYTGYDYWGQGTQVTVSS”, with “low polyreactivity”. Regarding “QVQLVESGGGLVQAGGSLRLSCAASGRIFSKYAMGWYRQAPGKDRELVAAISWSGGRTYYADSVKGRFTISRDNAKNTVYLQMNSLKPEDAALYYCAASFYTGYDYWGQGTQVTVSS”, the “polyreactivity (PSR sort gate)” value is reported as “high polyreactivity”. Then “QVQLVESGGGLVQAGGSLRLSCAASGRTFYWYTMGWYRQAPGKERELVAAISTRGVRTYYADSVKGRFTISRDNAKNTVYLQMNSLKPEDTAVYYGNDEYNPPYYTSHDDSDYWGQGTHVTVSS”, with “low polyreactivity”; and “QVQLVESGGGLVQAGGSLRLSCAASGFTFTPYAMGWYRQAPGKERELVATISWSGGSTYADSVKGRFTISRDNAKNTVYLQMNSLKPEDTAVYYCAADVYGVHAPQSDYWTKYDYWGQGTQVTVSS”, with “low polyreactivity”; and “QVQLVESGGGLVQAGGSLRLSCAPSGSIFAQYAMGWYRQAPGKERELVATISSVGSTNYADSVKGRFTISRDNAKNTVYLQMNSLKPEDTAVYYCNAVRSGWGYFYGLNYWGQGTQVTVSS”, with “low polyreactivity”.

For the sequence “QVQLVESGGGLVQAGGSLRLSCAASGFIFSYYAMGWYRQEPGKERELVAAITSNGGITYYADSVKGRFTISRDNAKNTVYLQMNSLKPEDTAVYYCNAYYTSTSYDYWGQGTQVTVSS”, the “polyreactivity (PSR sort gate)” value is recorded as “high polyreactivity”. For “QVQLVESGGGLVQAGGSLRLSCAASGRTFYPNVMGWYRQAPGKERELVAAITSGGSTYYADSVKGRFTISRDNAKNTVALEMNSQKPEDTAVYYCAVAYAGGGSRKYDYWGQGTQVTVSS” the value was “low polyreactivity”; for “QVQLVESGGGLVQAGGSLRLSCAASGRTFWKNTMGWSRQAPGKERELVAVISSGGVSTSYADSVKGRFTISRDNAKNTVYLQMNSLKPEDTAVYYCAADGYYIGPYDYWGQGTQVTVSS”, “low polyreactivity”; for “QVQLVETGGGLVQAGGSLRLSCAPSGFTFRRNAMGWYRQAPGKERELVAVITSSARTNYADSVKGRFTISRDNAKNTVYLQMNSLKPEDTAVYYCAARYHYGVWRERHGYWGQGTQVTVSS”, “high polyreactivity”. Turning to “QVQLVESGGGLVQAGGSLRLSCAASGRIFSKNAMGWYRPAPGKERELVAAISSGGSTYDADSVKGRFTISRDNAKNTVYLQMNSLKPEDTAVYYCAARKRGYYWGQGTQVTVSS”, the “polyreactivity (PSR sort gate)” value is “high polyreactivity”.

As for “QVQLVESGGGLVQAGGSLRLSSAASGSIFYQYAMGWYRQAPGKERQLVAAISRSGGSTYYAESVKGRFTISRDNAKNTVYLQMNSLIPEDTAVYYCATDIYSRWAGYKRSQYDYWGQGTQVTVSS”, the “polyreactivity (PSR sort gate)” value is “high polyreactivity”. Consider “QVQLVESGGGLVKAGGSLRISCAASGSIFGPNGKGLYRQAPGKERELVSAISWNGGSTYYADSVKGRFTISRDNAKNTVYLQMNSLKPEDTAVYYCNAVQYYEFDYWGHGTQVTVSS”, for which the “polyreactivity (PSR sort gate)” value was “low polyreactivity”.

On to “QVQLVESGGGLVQAGGSLRLSCAASGSIFAYNAMGWYRQAPGKERELVAAITISGGRTYYADSVKGRFTISRDNAKNTVYLQMNSLKPEDTAVYYCAARYPSGTRKWYGYWGQGTQVTVSS”, for which the “polyreactivity (PSR sort gate)” value is “high polyreactivity”. Then “QVQLVESGGGLVQAGGSLRLSCAASGRTSGGYAMGWYRQAPGKERELVATITQSGGRTYYADSVKGRFTISRDNAKNTVYLQMNSLKPEDTAVYYCAAQYGRTYYSRREYWGQGTQVTVSS”, with “high polyreactivity”; and “QVQLVESGGGLVQAGGSLRLSCAASGITFYIYAMGCYRHAPGKERELVAAISSTGGSTYYADSVKGSFTISRDNAKNTVYLQMNSLKPEDNAVYYCNAVFRGTGDYWGQGTQVTVSS”, with “high polyreactivity”. Then “QVQLVESGGGLVQAGGSLRLSCAASGSIFYRNTMGWYRQAPVKERELVAAITSSGDSTYYADSVKGRFTISRDNAKNTVYFQMNSLKPEDTAVYYCAKDQHDFLEALYDSWGQGTQVTVSS”, with “low polyreactivity”; and “QVQLVESGGGLVQAGGSLRLSCAASGRTFKKYAMGWYRQAPGKVREFVARITYSAGSTYYADSVKGRFTISRDNAKNTVYLQMNSLKPEDTAVYYCARRYASSGPRWYSRHGEYDYWGQGTQVTVSS”, with “low polyreactivity”.

Take “QVQLVESGGGLVQAGGSLRLSCAASGSTFTTYAMGWYRQAPGKEREFVASIRWRGGNTYYADSVKGRFTISRDNAKNTVYLQMNSLKPEDTAVYYCARRVDYISSKYGYWGQGTQVTVSS”: the “polyreactivity (PSR sort gate)” value is “high polyreactivity”.
